According to PMC11820146:

biological target: growth hormone receptor (GHR) (UniProt P10912)
Sequence of UniProt P10912 (P10912 19-638): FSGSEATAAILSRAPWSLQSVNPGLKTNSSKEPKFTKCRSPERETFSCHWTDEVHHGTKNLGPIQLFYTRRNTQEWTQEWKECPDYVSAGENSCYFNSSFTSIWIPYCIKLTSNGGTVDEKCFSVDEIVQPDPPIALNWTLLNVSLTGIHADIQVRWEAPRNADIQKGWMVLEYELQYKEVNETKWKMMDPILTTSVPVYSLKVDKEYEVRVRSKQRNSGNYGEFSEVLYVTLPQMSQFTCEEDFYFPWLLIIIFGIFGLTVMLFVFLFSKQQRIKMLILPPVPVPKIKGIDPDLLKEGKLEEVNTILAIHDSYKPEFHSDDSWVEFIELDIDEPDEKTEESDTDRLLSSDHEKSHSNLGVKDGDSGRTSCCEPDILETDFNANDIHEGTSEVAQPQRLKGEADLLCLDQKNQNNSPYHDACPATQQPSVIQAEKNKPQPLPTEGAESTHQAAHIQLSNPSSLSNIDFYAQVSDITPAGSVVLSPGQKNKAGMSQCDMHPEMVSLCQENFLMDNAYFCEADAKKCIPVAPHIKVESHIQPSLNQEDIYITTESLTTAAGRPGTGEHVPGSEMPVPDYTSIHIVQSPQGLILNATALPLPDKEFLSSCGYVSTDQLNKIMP

Compared with “PEG-rhGH isomer P4 (PEGylated recombinant human growth hormone, modified at K38) (from UniProt P01241 27-217) (ligand)”, “PEG-rhGH isomer P1 (PEGylated recombinant human growth hormone, modified at the N-terminus) (from UniProt P01241 27-217) (ligand)” is higher in bioactivity relative to the PEG-rhGH reference, reporter gene assay (luciferase, HepG2/IGF-1 cells): 29% for the first, 71.1% for the second.

Compared with “PEG-rhGH isomer P3 (PEGylated recombinant human growth hormone, modified at K145) (from UniProt P01241 27-217) (ligand)”, “PEG-rhGH isomer P5 (PEGylated recombinant human growth hormone, modified at K158) (from UniProt P01241 27-217) (ligand)” is lower in bioactivity relative to the PEG-rhGH reference, reporter gene assay (luciferase, HepG2/IGF-1 cells): 143% for the first, 107% for the second.

“PEG-rhGH isomer P2 (PEGylated recombinant human growth hormone, modified at K140) (from UniProt P01241 27-217) (ligand)” showed a bioactivity relative to the PEG-rhGH reference, reporter gene assay (luciferase, HepG2/IGF-1 cells) of 163%.
